± gives the standard deviation of the averaged measurements.
Tested on: ATP
Assay: switch fluorescence ratio, 500 uM ATP over buffer (Cy3 cluster intensity, sum of 5 cycles each) (fold (ratio)); higher = stronger signal-on switching upon ATP binding; sequences stand for … in TCGTCGGCAGCGTCAGATGTGTATAAGAGACAGTTTTTTTTTTTTTTTTTTTTTTTTT…TC
Settings: aptamer strand: ATP DNA aptamer (quencher-CACCTGGGGGAGTATTGCGGAGGAAGG + anchor), 100 nM annealed; ATP concentration: 500 uM
Procedure, shortened: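 Imaging in selection buffer was followed by imaging after 15 min with 500 uM ATP at 22 °C, for Cy3-labelled switching-strand clusters annealed to 100 nM quencher-labelled ATP aptamer on a modified Illumina MiSeq flow-cell. Five of these buffer/ATP cycles ran, separated by NaOH stripping and re-annealing. The fluorescence ratio per cluster is summed target-cycle over summed buffer-cycle Cy3 intensity, averaged per switch-domain sequence; clusters outside 100-1000 RFU were removed.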
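Further: ATP exposure 15 min at 22 °C before imaging.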

Row | Sequence | switch fluorescence ratio
1 | CTTAGATTTG | 0.9655 ± 0.0076
2 | CTTAGCATTG | 1.03 ± 0.023
3 | CTTAGCCACT | 1.036 ± 0.0065
4 | CTTAGCGGGA | 1.02 ± 0.025
5 | CTTAGCGGGG | 0.9827 ± 0.0064
6 | CTTAGCTTGC | 1.02 ± 0.054
7 | CTTAGGACGC | 1.22 ± 0.0055
8 | CTTAGGGATT | 0.987 ± 0.031
9 | CTTAGGTGAC | 1.034 ± 0.004
10 | CTTAGTCTTT | 1.018 ± 0.0027
11 | CTTAGTTAGT | 0.993 ± 0.01
12 | CTTAGTTTCG | 1.035 ± 0.0071
13 | CTTATAGTTT | 1.01 ± 0.016
14 | CTTATATCTT | 0.993 ± 0.025
15 | CTTATCTTTT | 0.986 ± 0.0097
16 | CTTATTAGCG | 1.03 ± 0.019
17 | CTTATTGAGC | 1.01 ± 0.012
18 | CTTATTTCGT | 1.001 ± 0.0018
19 | CTTCACAGGG | 1.06 ± 0.04
20 | CTTCACTACG | 1.12 ± 0.043
21 | CTTCAGGAGC | 1.69 ± 0.11
22 | CTTCAGTCTT | 1 ± 0.011
23 | CTTCATGGGT | 0.962 ± 0.013

Row | Sequence | switch fluorescence ratio
24 | CTTCATGGTC | 0.96 ± 0.017
25 | CTTCCTATTG | 1.08 ± 0.046
26 | CTTCGGGTAC | 3.69 ± 0.79
27 | CTTCGTGCGA | 1.14 ± 0.023
28 | CTTCTCTATC | 1.01 ± 0.027
29 | CTTCTTTTGG | 0.996 ± 0.032
30 | CTTGAAACGT | 0.992 ± 0.076
31 | CTTGAAGGGG | 0.999 ± 0.036
32 | CTTGAATGCG | 0.999 ± 0.031
33 | CTTGACATA | 1.03 ± 0.011
34 | CTTGAGCAGG | 1.2 ± 0.038
35 | CTTGAGGGGA | 0.983 ± 0.032
36 | CTTGATAAAA | 1.01 ± 0.017
37 | CTTGATATTG | 0.999 ± 0.018
38 | CTTGATGCGA | 1.032 ± 0.0045
39 | CTTGCACCC | 1.07 ± 0.024
40 | CTTGCATTGA | 1.08 ± 0.071
41 | CTTGCCGATT | 0.968 ± 0.029
42 | CTTGCTGCTG | 0.972 ± 0.044
43 | CTTGGACGGG | 0.9706 ± 0.0021
44 | CTTGGCAAGG | 1.03 ± 0.04
45 | CTTGGCGGGC | 1.01 ± 0.04
46 | CTTGGCTGTT | 0.986 ± 0.018

Row | Sequence | switch fluorescence ratio
47 | CTTGGGGGGT | 0.97564 ± 0.00052
48 | CTTGGGTAAG | 0.988 ± 0.033
49 | CTTGGGTATA | 1.25 ± 0.29
50 | CTTGGGTTGC | 0.9961 ± 0.0092
51 | CTTGTAACCT | 1.8 ± 0.061
52 | CTTGTAGCAG | 1.09 ± 0.021
53 | CTTGTATGGG | 1.01 ± 0.029
54 | CTTGTCCAGC | 1.04 ± 0.037
55 | CTTGTCGTTC | 1.01 ± 0.026
56 | CTTGTGAGTT | 0.979 ± 0.016
57 | CTTGTGTGGT | 1.02 ± 0.014
58 | CTTGTTAGGA | 1 ± 0.012
59 | CTTGTTAGTA | 0.987 ± 0.027
60 | CTTGTTGATT | 1.009 ± 0.0056
61 | CTTGTTTGAC | 0.988 ± 0.044
62 | CTTTAACGTG | 0.9718 ± 0.004
63 | CTTTAAGCAA | 4.65 ± 0.36
64 | CTTTAAGGCA | 0.981 ± 0.017
65 | CTTTAAGGGG | 1.01 ± 0.03
66 | CTTTAATTTT | 1.01 ± 0.055
67 | CTTTACGGGC | 1.02 ± 0.038
68 | CTTTATAGGA | 0.9944 ± 0.0056
69 | CTTTATAGTT | 1.02 ± 0.034

Row | Sequence | switch fluorescence ratio
70 | CTTTATGCGA | 1.033 ± 0.0093
71 | CTTTCAAAAA | 1.03 ± 0.015
72 | CTTTCAGGCT | 0.984 ± 0.016
73 | CTTTCTTTTT | 0.992 ± 0.018
74 | CTTTGCCTAG | 0.9806 ± 0.0088
75 | CTTTGGATTG | 0.99917 ± 0.00068
76 | CTTTGGGCAA | 1.46 ± 0.089
77 | CTTTGGGGAC | 1.055 ± 0.006
78 | CTTTGGGGCG | 1.01 ± 0.044
79 | CTTTGGGTTT | 0.981 ± 0.058
80 | CTTTGGTAGG | 0.992 ± 0.025
81 | CTTTGGTATA | 0.977 ± 0.0051
82 | CTTTGGTTGA | 0.995 ± 0.031
83 | CTTTGTCGGT | 1.03 ± 0.054
84 | CTTTGTGATA | 1.04 ± 0.025
85 | CTTTTAGTTG | 0.993 ± 0.017
86 | CTTTTATTTA | 0.99186 ± 0.00094
87 | CTTTTGGAGT | 0.986 ± 0.05
88 | CTTTTGTCAC | 1.05 ± 0.042
89 | CTTTTGTCGT | 1.01 ± 0.028
90 | CTTTTTATGA | 1.01 ± 0.027
91 | CTTTTTATTT | 1.14 ± 0.22
92 | CTTTTTGTGG | 0.9838 ± 0.0075

Row | Sequence | switch fluorescence ratio
93 | CTTTTTTAGA | 0.9746 ± 0.0097
94 | GAAAAAAAAA | 0.992 ± 0.023
95 | GAAAAAAAAG | 1.07 ± 0.1
96 | GAAAAAAGAT | 1.02 ± 0.014
97 | GAAAAAAGGC | 1.03 ± 0.032
98 | GAAAAAGCCC | 1.04 ± 0.031
99 | GAAAAAGGAC | 1.27 ± 0.32
100 | GAAAAAGGGA | 0.979 ± 0.026
101 | GAAAAAGGTC | 1.031 ± 0.008
102 | GAAAAATTTT | 1.02 ± 0.026
103 | GAAAAGAGTC | 1.07 ± 0.034
104 | GAAAAGCCCC | 1.09 ± 0.059
105 | GAAAAGTAAG | 1.018 ± 0.008
106 | GAAAATTATA | 1.02 ± 0.035
107 | GAAAATTATG | 1.009 ± 0.0086
108 | GAAACAGGAT | 1.02 ± 0.058
109 | GAAACCGGAG | 1.567 ± 0.015
110 | GAAACCTATT | 1.0142 ± 7.7e-05
111 | GAAACGAAGG | 0.9704 ± 0.0028
112 | GAAACGGTGT | 1.02 ± 0.031
113 | GAAACTTGGT | 1.004 ± 0.0065
114 | GAAAGAAGGG | 1.21 ± 0.35
115 | GAAAGAGGGA | 1.02 ± 0.079

Row | Sequence | switch fluorescence ratio
116 | GAAAGAGTTC | 0.99729 ± 0.00094
117 | GAAAGATGAC | 1.03 ± 0.088
118 | GAAAGCGGGG | 0.968 ± 0.024
119 | GAAAGGGGCT | 0.993 ± 0.031
120 | GAAAGGGGGA | 1.02 ± 0.025
121 | GAAAGGGGTC | 1.01 ± 0.074
122 | GAAAGGGGTT | 1.02 ± 0.035
123 | GAAAGGGTCC | 1.001 ± 0.01
124 | GAAAGGTAAG | 0.9934 ± 0.0036
125 | GAAAGTAGAG | 1.01 ± 0.0018
126 | GAAAGTGCAT | 0.999 ± 0.042
127 | GAAAGTTAGG | 1.1 ± 0.14
128 | GAAATAACTC | 1.36 ± 0.43
129 | GAAATAGGTT | 0.989 ± 0.012
130 | GAAATATAAT | 1.012 ± 0.0066
131 | GAAATCGGGG | 1.05 ± 0.15
132 | GAAATCGTTC | 1.02 ± 0.019
133 | GAAATGAAGG | 0.973 ± 0.016
134 | GAAATGATTT | 1.0406 ± 6.4e-05
135 | GAAATGCGGC | 0.97935 ± 0.00044
136 | GAAATGGCAA | 1.03 ± 0.051
137 | GAAATGGCGT | 0.986 ± 0.038
138 | GAAATGTGAG | 0.9797 ± 0.0045

Row | Sequence | switch fluorescence ratio
139 | GAAATTCCGC | 1.27 ± 0.088
140 | GAAATTGAGT | 1 ± 0.027
141 | GAAATTGGCA | 1.025 ± 0.004
142 | GAAATTTTGT | 0.994 ± 0.012
143 | GAACAACATG | 1.03 ± 0.051
144 | GAACACAAAA | 1.05 ± 0.032
145 | GAACAGGGGA | 1.53 ± 0.68
146 | GAACATTTCG | 1 ± 0.021
147 | GAACCGTGTT | 0.967 ± 0.036
148 | GAACCTGTGT | 0.993 ± 0.052
149 | GAACGCGTCC | 1.1 ± 0.015
150 | GAACGGCGGA | 0.9811 ± 0.002
151 | GAACGGCTCT | 1.012 ± 0.0011
152 | GAACGTTTGC | 1.11 ± 0.017
153 | GAACTAAATG | 1 ± 0.055
154 | GAACTAGGCA | 1 ± 0.012
155 | GAACTGAGTC | 1.01 ± 0.046
156 | GAACTTGCCA | 1.06 ± 0.073
157 | GAACTTGCCT | 1 ± 0.018

— the supplement of paper PMC10126150
